{"source": "the supplement of paper PMC5998384", "key": {"HeLa Kyoto [1]": {"tested_on": "HeLa Kyoto", "assay": "solubility change mitosis vs G1/S (difference of NP-40 vs SDS log2 ratios) (log2 ratio difference); higher = more soluble in mitosis"}, "HeLa Kyoto [2]": {"tested_on": "HeLa Kyoto", "assay": "solubility in G1/S (NP-40 vs SDS abundance) (log2 ratio); higher = more soluble", "conditions": "cell cycle stage: G1/S"}}}
{"sequence": "MEPRAAAAGEPEPPAASSSFQARLWKNLQLGVGRSKGGGGGRAGGPERRTADTPSPSPPPPVGTGNAPARGSGAGSRWSGFKKRKQVLDRVFSSSQPNLCCSSPEPLEPGGAGRAEQGSTLRRRIREHLLPAVKGPAAASGAAGGTPPGGRSPDSAPSSSSASSSLSSSPQPPPRGDRARDEGARRQGPGAHLCHQKSSSLPGTACLEQLLEPPPPPAEPARSPAESRAPETGEEHGSSQKIINTAGTSNAEVPLADPGMYQLDITLRRGQSLAARDRGGTSDPYVKFKIGGKEVFRSKIIHKNLNPVWEEKACILVDHLREPLYIKVFDYDFGLQDDFMGSAFLDLTQLELNRPTDVTLTLKDPHYPDHDLGIILLSVILTPKEGESRDVTMLMRKSWKRSSKELSENEVVGSYFSVKSLFWRTCGRPALPVLGFCRAELQNPYCKNVQFQTQSLRLSDLHRKSHLWRGIVSITLIEGRDLKAMDSNGLSDPYVKFRLGHQKYKSKIMPKTLNPQWREQFDFHLYEERGGVIDITAWDKDAGKRDDFIGRCQVDLSALSREQTHKLELQLEEGEGHLVLLVTLTASATVSISDLSVNSLEDQKEREEILKRYSPLRIFHNLKDVGFLQVKVIRAEGLMAADVTGKSDPFCVVELNNDRLLTHTVYKNLNPEWNKVFTFNIKDIHSVLEVTVYDEDRDRSADFLGKVAIPLLSIQNGEQKAYVLKNKQLTGPTKGVIYLEIDVIFNAVKASLRTLIPKEQKYIEEENRLSKQLLLRNFIRMKRCVMVLVNAAYYVNSCFDWDSPPRSLAAFVLFLFVVWNFELYMIPLVLLLLLTWNYFLIISGKDNRQRDTVVEDMLEDEEEEDDKDDKDSEKKGFINKIYAIQEVCVSVQNILDEVASFGERIKNTFNWTVPFLSWLAIVALCVFTAILYCIPLRYIVLVWGINKFTKKLRSPYAIDNNELLDFLSRVPSDVQVVQYQELKPDPSHSPYKRKKNNLG [MCTP1]", "values": [{"measurement": "solubility change mitosis (log2)", "setting": "HeLa Kyoto [1]", "value": -0.196}, {"measurement": "solubility in G1/S (log2)", "setting": "HeLa Kyoto [2]", "value": 0.0529}]}
{"sequence": "MEPRRAAPGVPGWGSREAAGSASAAELVYHLAGALGTELQDLARRFGPEAAAGLVPLVVRALELLEQAAVGPAPDSLQVSAQPAEQELRRLREENERLRRELRAGPQEERALLRQLKEVTDRQRDELRAHNRDLRQRGQETEALQEQLQRLLLVNAELRHKLAAMQTQLRAAQDRERERQQPGEAATPQAKERARGQAGRPGHQHGQEPEWATAGAGAPGNPEDPAEAAQQLGRPSEAGQCRFSREEFEQILQERNELKAKVFLLKEELAYFQRELLTDHRVPGLLLEAMKVAVRKQRKKIKAKMLGTPEEAESSEDEAGPWILLSDDKGDHPPPPESKIQSFFGLWYRGKAESSEDETSSPAPSKLGGEEEAQPQSPAPDPPCSALHEHLCLGASAAPEA [RILP]", "values": [{"measurement": "solubility change mitosis (log2)", "setting": "HeLa Kyoto [1]", "value": 0.11}, {"measurement": "solubility in G1/S (log2)", "setting": "HeLa Kyoto [2]", "value": 0.551}]}
{"sequence": "MEQRRVTDFFARRRPGPPRIAPPKLACRTPSPARPALRAPASATSGSRKRARPPAAPGRDQARPPARRRLRLSVDEVSSPSTPEAPDIPACPSPGQKIKKSTPAAGQPPHLTSAQDQDTISELASCLQRARELGARVRALKASAQDAGESCTPEAEGRPEEPCGEKAPAYQRFHALAQPGLPGLVLPYKYQVLAEMFRSMDTIVGMLHNRSETPTFAKVQRGVQDMMRRRFEECNVGQIKTVYPASYRFRQERSVPTFKDGTRRSDYQLTIEPLLEQEADGAAPQLTASRLLQRRQIFSQKLVEHVKEHHKAFLASLSPAMVVPEDQLTRWHPRFNVDEVPDIEPAALPQPPATEKLTTAQEVLARARNLISPRMEKALSQLALRSAAPSSPGSPRPALPATPPATPPAASPSALKGVSQDLLERIRAKEAQKQLAQMTRCPEQEQRLQRLERLPELARVLRSVFVSERKPALSMEVACARMVGSCCTIMSPGEMEKHLLLLSELLPDWLSLHRIRTDTYVKLDKAADLAHITARLAHQTRAEEGL [CDT1]", "values": [{"measurement": "solubility change mitosis (log2)", "setting": "HeLa Kyoto [1]", "value": 0.575}, {"measurement": "solubility in G1/S (log2)", "setting": "HeLa Kyoto [2]", "value": 0.0981}]}
{"sequence": "MERPSLRALLLGAAGLLLLLLPLSSSSSSDTCGPCEPASCPPLPPLGCLLGETRDACGCCPMCARGEGEPCGGGGAGRGYCAPGMECVKSRKRRKGKAGAAAGGPGVSGVCVCKSRYPVCGSDGTTYPSGCQLRAASQRAESRGEKAITQVSKGTCEQGPSIVTPPKDIWNVTGAQVYLSCEVIGIPTPVLIWNKVKRGHYGVQRTELLPGDRDNLAIQTRGGPEKHEVTGWVLVSPLSKEDAGEYECHASNSQGQASASAKITVVDALHEIPVKKGEGAEL [IGFBP7]", "values": [{"measurement": "solubility change mitosis (log2)", "setting": "HeLa Kyoto [1]", "value": 0.407}, {"measurement": "solubility in G1/S (log2)", "setting": "HeLa Kyoto [2]", "value": 0.0794}]}
{"sequence": "MESETEPEPVTLLVKSPNQRHRDLELSGDRGWSVGHLKAHLSRVYPERPRPEDQRLIYSGKLLLDHQCLRDLLPKQEKRHVLHLVCNVKSPSKMPEINAKVAESTEEPAGSNRGQYPEDSSSDGLRQREVLRNLSSPGWENISRPEAAQQAFQGLGPGFSGYTPYGWLQLSWFQQIYARQYYMQYLAATAASGAFVPPPSAQEIPVVSAPAPAPIHNQFPAENQPANQNAAPQVVVNPGANQNLRMNAQGGPIVEEDDEINRDWLDWTYSAATFSVFLSILYFYSSLSRFLMVMGATVVMYLHHVGWFPFRPRPVQNFPNDGPPPDVVNQDPNNNLQEGTDPETEDPNHLPPDRDVLDGEQTSPSFMSTAWLVFKTFFASLLPEGPPAIAN [HERPUD1]", "values": [{"measurement": "solubility change mitosis (log2)", "setting": "HeLa Kyoto [1]", "value": -0.0685}, {"measurement": "solubility in G1/S (log2)", "setting": "HeLa Kyoto [2]", "value": 0.0523}]}
{"sequence": "MESKGASSCRLLFCLLISATVFRPGLGWYTVNSAYGDTIIIPCRLDVPQNLMFGKWKYEKPDGSPVFIAFRSSTKKSVQYDDVPEYKDRLNLSENYTLSISNARISDEKRFVCMLVTEDNVFEAPTIVKVFKQPSKPEIVSKALFLETEQLKKLGDCISEDSYPDGNITWYRNGKVLHPLEGAVVIIFKKEMDPVTQLYTMTSTLEYKTTKADIQMPFTCSVTYYGPSGQKTIHSEQAVFDIYYPTEQVTIQVLPPKNAIKEGDNITLKCLGNGNPPPEEFLFYLPGQPEGIRSSNTYTLTDVRRNATGDYKCSLIDKKSMIASTAITVHYLDLSLNPSGEVTRQIGDALPVSCTISASRNATVVWMKDNIRLRSSPSFSSLHYQDAGNYVCETALQEVEGLKKRESLTLIVEGKPQIKMTKKTDPSGLSKTIICHVEGFPKPAIQWTITGSGSVINQTEESPYINGRYYSKIIISPEENVTLTCTAENQLERTVNSLNVSAISIPEHDEADEISDENREKVNDQAKLIVGIVVGLLLAALVAGVVYWLYMKKSKTASKHVNKDLGNMEENKKLEENNHKTEA [ALCAM]", "values": [{"measurement": "solubility change mitosis (log2)", "setting": "HeLa Kyoto [1]", "value": -0.0197}, {"measurement": "solubility in G1/S (log2)", "setting": "HeLa Kyoto [2]", "value": 0.38}]}
{"sequence": "MESRDHNNPQEGPTSSSGRRAAVEDNHLLIKAVQNEDVDLVQQLLEGGANVNFQEEEGGWTPLHNAVQMSREDIVELLLRHGADPVLRKKNGATPFILAAIAGSVKLLKLFLSKGADVNECDFYGFTAFMEAAVYGKVKALKFLYKRGANVNLRRKTKEDQERLRKGGATALMDAAEKGHVEVLKILLDEMGADVNACDNMGRNALIHALLSSDDSDVEAITHLLLDHGADVNVRGERGKTPLILAVEKKHLGLVQRLLEQEHIEINDTDSDGKTALLLAVELKLKKIAELLCKRGASTDCGDLVMTARRNYDHSLVKVLLSHGAKEDFHPPAEDWKPQSSHWGAALKDLHRIYRPMIGKLKFFIDEKYKIADTSEGGIYLGFYEKQEVAVKTFCEGSPRAQREVSCLQSSRENSHLVTFYGSESHRGHLFVCVTLCEQTLEACLDVHRGEDVENEEDEFARNVLSSIFKAVQELHLSCGYTHQDLQPQNILIDSKKAAHLADFDKSIKWAGDPQEVKRDLEDLGRLVLYVVKKGSISFEDLKAQSNEEVVQLSPDEETKDLIHRLFHPGEHVRDCLSDLLGHPFFWTWESRYRTLRNVGNESDIKTRKSESEILRLLQPGPSEHSKSFDKWTTKINECVMKKMNKFYEKRGNFYQNTVGDLLKFIRNLGEHIDEEKHKKMKLKIGDPSLYFQKTFPDLVIYVYTKLQNTEYRKHFPQTHSPNKPQCDGAGGASGLASPGC [RNASEL]", "values": [{"measurement": "solubility change mitosis (log2)", "setting": "HeLa Kyoto [1]", "value": -0.0377}, {"measurement": "solubility in G1/S (log2)", "setting": "HeLa Kyoto [2]", "value": -0.104}]}
{"sequence": "MESTPSRGLNRVHLQCRNLQEFLGGLSPGVLDRLYGHPATCLAVFRELPSLAKNWVMRMLFLEQPLPQAAVALWVKKEFSKAQEESTGLLSGLRIWHTQLLPGGLQGLILNPIFRQNLRIALLGGGKAWSDDTSQLGPDKHARDVPSLDKYAEERWEVVLHFMVGSPSAAVSQDLAQLLSQAGLMKSTEPGEPPCITSAGFQFLLLDTPAQLWYFMLQYLQTAQSRGMDLVEILSFLFQLSFSTLGKDYSVEGMSDSLLNFLQHLREFGLVFQRKRKSRRYYPTRLAINLSSGVSGAGGTVHQPGFIVVETNYRLYAYTESELQIALIALFSEMLYRFPNMVVAQVTRESVQQAIASGITAQQIIHFLRTRAHPVMLKQTPVLPPTITDQIRLWELERDRLRFTEGVLYNQFLSQVDFELLLAHARELGVLVFENSAKRLMVVTPAGHSDVKRFWKRQKHSS [GTF2H4]", "values": [{"measurement": "solubility change mitosis (log2)", "setting": "HeLa Kyoto [1]", "value": 0.00292}, {"measurement": "solubility in G1/S (log2)", "setting": "HeLa Kyoto [2]", "value": -0.135}]}
{"sequence": "METDESPSPLPCGPAGEAVMESRARPFQALPREQSPPPPLQTSSGAEVMDVGSGGDGQSELPAEDPFNFYGASLLSKGSFSKGRLLIDPNCSGHSPRTARHAPAVRKFSPDLKLLKDVKISVSFTESCRSKDRKVLYTGAERDVRAECGLLLSPVSGDVHACPFGGSVGDGVGIGGESADKKDEENELDQEKRVEYAVLDELEDFTDNLELDEEGAGGFTAKAIVQRDRVDEEALNFPYEDDFDNDVDALLEEGLCAPKKRRTEEKYGGDSDHPSDGETSVQPMMTKIKTVLKSRGRPPTEPLPDGWIMTFHNSGVPVYLHRESRVVTWSRPYFLGTGSIRKHDPPLSSIPCLHYKKMKDNEEREQSSDLTPSGDVSPVKPLSRSAELEFPLDEPDSMGADPGPPDEKDPLGAEAAPGALGQVKAKVEVCKDESVDLEEFRSYLEKRFDFEQVTVKKFRTWAERRQFNREMKRKQAESERPILPANQKLITLSVQDAPTKKEFVINPNGKSEVCILHEYMQRVLKVRPVYNFFECENPSEPFGASVTIDGVTYGSGTASSKKLAKNKAARATLEILIPDFVKQTSEEKPKDSEELEYFNHISIEDSRVYELTSKAGLLSPYQILHECLKRNHGMGDTSIKFEVVPGKNQKSEYVMACGKHTVRGWCKNKRVGKQLASQKILQLLHPHVKNWGSLLRMYGRESSKMVKQETSDKSVIELQQYAKKNKPNLHILSKLQEEMKRLAEEREETRKKPKMSIVASAQPGGEPLCTVDV [DGCR8]", "values": [{"measurement": "solubility change mitosis (log2)", "setting": "HeLa Kyoto [1]", "value": 0.0203}, {"measurement": "solubility in G1/S (log2)", "setting": "HeLa Kyoto [2]", "value": -0.452}]}
{"sequence": "METMRAQRLQPGVGTSGRGTLRALRPGVTGAAAATATPPAGPPPAPPPPAPPPPPLLLSGAPGLPLPPGAAGSPAVLREAVEAVVRSFAKHTQGYGRVNVVEALQEFWQMKQSRGADLKNGALVVYEMVPSNSPPYVCYVTLPGGSCFGSFQFCPTKAEARRSAAKIALMNSVFNEHPSRRITDEFIEKSVSEALASFNGNREEADNPNTGIGAFRFMLESNKGKSMLEFQELMTVFQLLHWNGSLKAMRERQCSRQEVLAHYSHRALDDDIRHQMALDWVSREQSVPGALSRELASTERELDEARLAGKELRFHKEKKDILVLAAGQLGNMHSSNC [LIX1L]", "values": [{"measurement": "solubility change mitosis (log2)", "setting": "HeLa Kyoto [1]", "value": -0.1}, {"measurement": "solubility in G1/S (log2)", "setting": "HeLa Kyoto [2]", "value": 0.528}]}
